From the supplement of paper PMC12042874
± gives the uncertainty stated by the source.

Assay: amyloid nucleation score (Sup35N fusion, yeast selection) (log enrichment); library NNK3; higher = more nucleation; inactive = no reads after selection
How it was run: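 Peptides of 20 random codons, each fused to Sup35N, were expressed in psi-negative yeast. Cells were induced with 100 μM copper sulfate for 24 hours and grown 7 days at 30°C on medium lacking adenine and uracil, and plasmid inserts before and after selection were Illumina-sequenced. Nucleation scores are DiMSum log enrichments of output over input reads, centred on the mode score of non-aggregating sequences, and sequences under 100 input reads were excluded.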
With VMYGEVSDTYMAREICKFSA the amyloid nucleation score was “inactive”. For VMYVVYFHELVYYR, the amyloid nucleation score was “inactive”. Work on VNCQCSSEWCHKNSVYFIRY yielded an amyloid nucleation score of 2.59 ± 0.087. With VNDVLASLTLCMWLVEWGMK the amyloid nucleation score was “inactive”. Sequence VNEIRDILLVSYSKFRAWGQ has an amyloid nucleation score of 1.2 ± 0.13. In the case of VNGFRVHWERPEHCYSVLML, the amyloid nucleation score is reported as “inactive”. Work on VNLEDGSGDSCKDNCNGERF yielded an amyloid nucleation score of -0.821 ± 0.84. In the case of VNLGDGHVDDSIASQDMWHK, the amyloid nucleation score is reported as “inactive”. With VNLITREHLKKGSMNNFIAN the amyloid nucleation score was “inactive”. In the case of VNNNYEVCNDRDSCPLINFC, the amyloid nucleation score is reported as “inactive”. In the case of VNPIERWA, the amyloid nucleation score is reported as “inactive”. In the case of VNVIDLFGFQPSNRLTGNVR, the amyloid nucleation score is reported as “inactive”. With VNVTIGIYKRHRYLWSGIAM the amyloid nucleation score was “inactive”. For VNWRVRWIYSILGKS, the amyloid nucleation score was “inactive”. In the case of VPGMSAVCKMGLLLDVGVHE, the amyloid nucleation score is reported as “inactive”. In the case of VPPVVSAP, the amyloid nucleation score is reported as 1.05 ± 0.12. For VPRVSSTQDCNRLILRKVCL, the amyloid nucleation score was “inactive”. With VQGIPELALMLSRARGRGV the amyloid nucleation score was “inactive”. For VQLLDRNEIFGVWGSIELLQ, the amyloid nucleation score was “inactive”. VQLPVIVSAPPI showed an amyloid nucleation score of -0.421 ± 1.1. VQPSFTMYMEFSCACVAMQL showed an amyloid nucleation score of -0.423 ± 0.49. With VQVMETEMRSVVA the amyloid nucleation score was “inactive”. In the case of VQYNHLRVVSHDVNENGEPR, the amyloid nucleation score is reported as “inactive”. VRDFGLPTWAQLAWMYNANG showed an amyloid nucleation score of -0.229 ± 1.1. In the case of VREFTFYDV, the amyloid nucleation score is reported as “inactive”. For VRESAWGLYNRYFSVFSAVV, the amyloid nucleation score was “inactive”. VRGIAIACWSQFCNWRICCR gave an amyloid nucleation score of -0.231 ± 0.82. With VRGNYRNSFACRVLNHDQFW the amyloid nucleation score was “inactive”. With VRLNALIHDIVMMVWGTMHG the amyloid nucleation score was “inactive”. With VRLSKHMLVIDRGLKQLVIY the amyloid nucleation score was “inactive”. With VRLYYSKPRLKRGDSCVEKY the amyloid nucleation score was “inactive”. With VRMRDFKENARRMVP the amyloid nucleation score was “inactive”. In the case of VRMSRYSEWQDFNIPIEVIV, the amyloid nucleation score is reported as 0.776 ± 0.16. With VRMTAIFLNLKVWQSNMFVV the amyloid nucleation score was “inactive”. For VRNLLKMTFR, the amyloid nucleation score was “inactive”. For VRQWSTFASLMYATENGVNN, the amyloid nucleation score was “inactive”. For VRRDLGFFSRNVT, the amyloid nucleation score was “inactive”. In the case of VRRKDSNSCVSSHTASQSGW, the amyloid nucleation score is reported as “inactive”. With VRSARRQAGELEGFYCLYQV the amyloid nucleation score was “inactive”. For VRSKLYGPDVYPTHLGTAVM, the amyloid nucleation score was “inactive”. In the case of VRSQGLHRRVFFIATGIKLG, the amyloid nucleation score is reported as “inactive”. For VRSTYGNKGFVSQRGLQFSP, the amyloid nucleation score was “inactive”. In the case of VRTRWFIAPVCVARGSLCLV, the amyloid nucleation score is reported as “inactive”. For VSAFFRSKG, the amyloid nucleation score was “inactive”. In the case of VSCMLLSRDLCLQSFIWMLL, the amyloid nucleation score is reported as “inactive”. With VSDILADCPIIRPGGYCCVS the amyloid nucleation score was “inactive”. In the case of VSDLEERSSILG, the amyloid nucleation score is reported as “inactive”. For VSEFRRVYFSAQFSRVGNSC, the amyloid nucleation score was “inactive”. VSELPSACDNYIYCCNG showed an amyloid nucleation score of 0.326 ± 0.2. With VSGLFDVTLRGWYG the amyloid nucleation score was “inactive”. In the case of VSGSFVYLLCNS, the amyloid nucleation score is reported as “inactive”. Work on VSLQLLWNPMLSYFTFQVGR yielded an amyloid nucleation score of 1.16 ± 0.19. In the case of VSMCNLNGVLPLNLFRLGLC, the amyloid nucleation score is reported as “inactive”. In the case of VSNLGCCKALSCGMSYRVCW, the amyloid nucleation score is reported as “inactive”. For VSPRRGHNVYLIVAARWCVA, the amyloid nucleation score was “inactive”. VSRVSLKRRYALM showed an amyloid nucleation score of -1.13 ± 2.5. With VSTRFFSACTLHFQSSMPYC the amyloid nucleation score was “inactive”. In the case of VSYLVCIDWVCPSGQWNAFW, the amyloid nucleation score is reported as 1.52 ± 0.11.
